# Results reported in article PMC4482762.
# Biological target: endogenous 14-3-3ε (UniProt P62258)
# Test: GFP-Trap of YFP-R6, Western blot
# Conditions: reference: YFP-R6 wild type; sites S74
substance,measurement,value
PPP1R3D (R6) (from UniProt O95685) YFP-R6 S74A,binding against the reference,lost
